In publication PMC3843637 one finds Kd data, which are given here for one molecule.

For test [1], the target named is S3LMH2EEE/S4LMH2 heterotrimer (human) (UniProt P84022). Kind of test: ITC.
The target in test [2] is phosphomimetic Smad3 fragment S3LMH2EEE (linker and MH2 domain, amino acids 167 to 425) (human) (UniProt P84022). Put plainly: ITC. (In ITC the heat of successive injections is recorded.)

Where “and” joins values, the source holds several entries; their conditions need not be identical. Equal values may be shown once.

B1: MAN1 fragment from amino acids 755 to 911 (MAN1Luhm) (domain or fragment)
chain: DKILVIPSKVWQGQAFHLDRRNSPPNSLTPCLKIRNMFDPVMEIGDQWHLAIQEAILEKCSDNDGIVHIAVDKNSREGCVYVKCLSPEYAGKAFKALHGSWFDGKLVTVKYLRLDRYHHRFPQALTSNTPLKPSNKHMNSMSHLRLRTGLTNSQGSS
For orientation: Kd means the equilibrium constant for the complex coming apart. Read a low Kd as higher affinity. As for B1, the Kd in test [1] is 1.5 µM and 1.37 µM; in test [2] it was 1.17 µM and 1.35 µM.
